These are literature values, as cited in publication PMC4896244.

This data set has as its target Connexin 43 CT (UniProt P23242).
Sequence of UniProt P23242 (P23242 255-382): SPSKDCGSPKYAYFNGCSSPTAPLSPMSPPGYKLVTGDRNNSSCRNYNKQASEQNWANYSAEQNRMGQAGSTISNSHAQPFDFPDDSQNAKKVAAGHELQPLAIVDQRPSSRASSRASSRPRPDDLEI

What is called Kd is the equilibrium constant for the complex coming apart. Turning to CIP75 UBA (from UniProt Q99NB8), the Kd was 300 µM.
